Patent US12673985B2, “Method for the treatment or prophylaxis of cancer by targeting the extracellular portion of keratin 14 (KRT14) residing on cancer cells” (Hudson Institute of Medical Research, priority 2019, dated 2026)
Entries after “also recorded” stand apart in the source; their conditions may differ.

Assay: Assessment of mAb AN-17 toxicity, single intraperitoneal dose
Type: in vivo, mice
Protocol: Doses of 0.5, 1.0. 2.5, 5.0 and 10 mg/kg were assessed. After 7 days mice were culled, and examined post mortem for any evidence of toxicity (macroscopic tissue appearance, presence of inflammation, or any obvious lesions).

B1: mAb AN-17: monoclonal anti-KRT14 antibody; heavy chain variable region SEQ ID NO:3, light chain variable region SEQ ID NO:5 (clone AN-17A RG4.E5b.A7.B4) (antibody, listed as Mus musculus, V domains shown)
VH: QVQLKESGPGLVAPSQSLSITCTVSGFSLSRYSVHWVRQPPGKGLEWLGMIWGGGSTDYNSALKSRLSISKDNSKSQVFLKMNSLQTDDTAMYYCARKDYGYSYFDYWGQGTTLTVSS
VL: DVLMTQTPLSLPVSLGDQASISCRSSQSIVHSNGNTYLEWYLQKPGQSPKLLIYKVSNRFSGVPDRFSGSGSGTDFTLKISRVEAEDLGVYYCFQGSHVPFTFGSGTKLEIKRADAAPTVS
Doses up to 10 mg/kg i.p.
  maximum tolerated dose: not reached
Single i.p. dose 0.5, 1.0, 2.5, 5.0 and 10 mg/kg, up to 7 days and post mortem
  evidence of toxic effects: No evidence of toxic effects; also recorded: no toxicity noted at any dose or any time point
